# Experimental data from the supplement of paper PMC10065799, “High-throughput profiling of sequence recognition by tyrosine kinases and SH2 domains using bacterial peptide display” (eLife, 2023).
# Molecular target: Hck (UniProt P08631)
# Assay: phosphorylation enrichment, bacterial display (enrichment ratio); higher = better substrate or ligand; peptides without Tyr show the background
# 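For SH2 binding enrichment of the phosphorylated peptide, bacterial display in this document: peptide library displayed on the E. coli surface as eCPX fusions, selected cells deep-sequenced, score is each peptide's frequency after selection divided by its frequency in the input.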
# 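For phosphorylation enrichment, bacterial display in this document: 11-residue human phosphosite peptides and single-mutation variants displayed on the E. coli surface, counted by deep sequencing, each peptide's frequency after selection divided by its frequency in the unselected input library; frequency after pTyr selection over input frequency; kinase dosed for 20-30% of maximal phosphorylation in three min.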
# Hck, sequence (P08631 whole entry, looked up): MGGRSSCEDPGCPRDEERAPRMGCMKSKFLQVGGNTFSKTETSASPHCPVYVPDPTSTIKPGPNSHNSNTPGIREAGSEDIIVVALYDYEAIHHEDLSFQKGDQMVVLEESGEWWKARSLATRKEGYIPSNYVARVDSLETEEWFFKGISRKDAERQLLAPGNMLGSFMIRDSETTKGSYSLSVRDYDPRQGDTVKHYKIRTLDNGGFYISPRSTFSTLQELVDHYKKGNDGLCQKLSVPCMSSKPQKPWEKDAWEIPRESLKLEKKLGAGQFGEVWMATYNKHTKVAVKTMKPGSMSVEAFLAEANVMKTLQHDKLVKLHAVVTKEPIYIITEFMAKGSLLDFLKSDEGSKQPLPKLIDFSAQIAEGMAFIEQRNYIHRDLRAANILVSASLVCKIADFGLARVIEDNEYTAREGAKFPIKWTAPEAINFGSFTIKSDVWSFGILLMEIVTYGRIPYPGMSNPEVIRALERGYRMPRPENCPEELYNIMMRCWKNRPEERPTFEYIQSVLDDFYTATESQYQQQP
row,Sequence,phosphorylation enrichment
1,RQGQAYRGQRV [TSHR_Y706_A703G],0.47
2,YCRIMYDIFPF [INTS13_Y67],3.78
3,AFSLKYEQQTQ [SYTL4_Y366],0.535
4,AHARMYGVLPW [PLP1_Y207_D203H],3.4
5,FGCGMYSHLQG [LGR4_Y848_D844G_YF],1.71
6,ENELTYYCYKK [CD59_Y86_C89Y],4.79
7,KSPGEYVNIEF [IRS1_Y896],0.575
8,LLAGLYRGQAL [FGFR4_Y390],0.571
9,FGRTFYNQAIM [MCCC2_Y196],0.462
10,RSRSPYSPVFR [CDK13_Y399_L403F],0.736
11,LLSVAYKNVVG [YWHAG_Y49],0.665
12,RHFTGYRIELQ [INSR_Y818],0.401
13,RKNAKYLLKGE [CDH5_Y82],0.577
14,IMITDYLPLFR [INSR_Y87_L89P],0.755
15,TLSGIYQYNIA [FOXL2_Y81_I84N],4.79
16,PTTKTYFPHFD [HBA1_Y43],0.352

# Molecular target: Jak2 (UniProt O60674)
# Sequence (O60674 whole entry, looked up): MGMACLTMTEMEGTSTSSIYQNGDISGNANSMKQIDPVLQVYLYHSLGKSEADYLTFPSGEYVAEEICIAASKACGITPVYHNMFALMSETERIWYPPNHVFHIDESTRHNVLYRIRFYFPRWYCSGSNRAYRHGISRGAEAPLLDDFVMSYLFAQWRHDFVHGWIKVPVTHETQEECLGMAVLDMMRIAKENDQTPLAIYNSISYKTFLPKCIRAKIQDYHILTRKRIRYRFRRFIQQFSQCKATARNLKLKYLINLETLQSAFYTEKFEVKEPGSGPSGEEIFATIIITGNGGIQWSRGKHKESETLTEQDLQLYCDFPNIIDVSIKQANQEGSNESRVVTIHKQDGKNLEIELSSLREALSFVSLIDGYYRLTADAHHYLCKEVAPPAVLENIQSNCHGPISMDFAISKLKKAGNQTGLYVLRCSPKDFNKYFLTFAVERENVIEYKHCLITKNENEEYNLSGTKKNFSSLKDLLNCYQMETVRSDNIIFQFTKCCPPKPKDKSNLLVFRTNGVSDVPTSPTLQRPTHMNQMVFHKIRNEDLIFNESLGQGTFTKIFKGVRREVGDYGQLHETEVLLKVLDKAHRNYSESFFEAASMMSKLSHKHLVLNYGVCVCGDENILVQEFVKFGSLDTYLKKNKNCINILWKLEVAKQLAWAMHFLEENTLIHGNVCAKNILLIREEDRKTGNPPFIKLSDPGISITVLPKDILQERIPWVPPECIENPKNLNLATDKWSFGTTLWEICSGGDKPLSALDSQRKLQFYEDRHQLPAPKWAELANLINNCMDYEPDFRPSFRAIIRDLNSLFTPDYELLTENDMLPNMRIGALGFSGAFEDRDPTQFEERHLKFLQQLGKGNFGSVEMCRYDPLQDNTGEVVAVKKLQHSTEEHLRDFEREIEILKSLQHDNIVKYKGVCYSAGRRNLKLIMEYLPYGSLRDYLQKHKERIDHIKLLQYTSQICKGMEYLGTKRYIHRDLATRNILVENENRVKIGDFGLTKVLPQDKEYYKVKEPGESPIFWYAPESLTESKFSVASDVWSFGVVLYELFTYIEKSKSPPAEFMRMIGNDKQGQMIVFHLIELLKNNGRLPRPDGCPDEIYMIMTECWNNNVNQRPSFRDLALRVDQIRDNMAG
# Assay: as above
row,Sequence,phosphorylation enrichment
1,RQGQAYRGQRV [TSHR_Y706_A703G],0.48
2,YCRIMYDIFPF [INTS13_Y67],1.51
3,AFSLKYEQQTQ [SYTL4_Y366],0.982
4,AHARMYGVLPW [PLP1_Y207_D203H],0.478
5,FGCGMYSHLQG [LGR4_Y848_D844G_YF],1.06
6,ENELTYYCYKK [CD59_Y86_C89Y],2.25
7,KSPGEYVNIEF [IRS1_Y896],0.623
8,LLAGLYRGQAL [FGFR4_Y390],0.72
9,FGRTFYNQAIM [MCCC2_Y196],0.96
10,RSRSPYSPVFR [CDK13_Y399_L403F],0.737
11,LLSVAYKNVVG [YWHAG_Y49],0.649
12,RHFTGYRIELQ [INSR_Y818],0.989
13,RKNAKYLLKGE [CDH5_Y82],0.827
14,IMITDYLPLFR [INSR_Y87_L89P],2.85
15,TLSGIYQYNIA [FOXL2_Y81_I84N],0.951
16,PTTKTYFPHFD [HBA1_Y43],0.572

# Molecular target: MERTK (UniProt Q12866)
# Sequence (Q12866 whole entry, looked up): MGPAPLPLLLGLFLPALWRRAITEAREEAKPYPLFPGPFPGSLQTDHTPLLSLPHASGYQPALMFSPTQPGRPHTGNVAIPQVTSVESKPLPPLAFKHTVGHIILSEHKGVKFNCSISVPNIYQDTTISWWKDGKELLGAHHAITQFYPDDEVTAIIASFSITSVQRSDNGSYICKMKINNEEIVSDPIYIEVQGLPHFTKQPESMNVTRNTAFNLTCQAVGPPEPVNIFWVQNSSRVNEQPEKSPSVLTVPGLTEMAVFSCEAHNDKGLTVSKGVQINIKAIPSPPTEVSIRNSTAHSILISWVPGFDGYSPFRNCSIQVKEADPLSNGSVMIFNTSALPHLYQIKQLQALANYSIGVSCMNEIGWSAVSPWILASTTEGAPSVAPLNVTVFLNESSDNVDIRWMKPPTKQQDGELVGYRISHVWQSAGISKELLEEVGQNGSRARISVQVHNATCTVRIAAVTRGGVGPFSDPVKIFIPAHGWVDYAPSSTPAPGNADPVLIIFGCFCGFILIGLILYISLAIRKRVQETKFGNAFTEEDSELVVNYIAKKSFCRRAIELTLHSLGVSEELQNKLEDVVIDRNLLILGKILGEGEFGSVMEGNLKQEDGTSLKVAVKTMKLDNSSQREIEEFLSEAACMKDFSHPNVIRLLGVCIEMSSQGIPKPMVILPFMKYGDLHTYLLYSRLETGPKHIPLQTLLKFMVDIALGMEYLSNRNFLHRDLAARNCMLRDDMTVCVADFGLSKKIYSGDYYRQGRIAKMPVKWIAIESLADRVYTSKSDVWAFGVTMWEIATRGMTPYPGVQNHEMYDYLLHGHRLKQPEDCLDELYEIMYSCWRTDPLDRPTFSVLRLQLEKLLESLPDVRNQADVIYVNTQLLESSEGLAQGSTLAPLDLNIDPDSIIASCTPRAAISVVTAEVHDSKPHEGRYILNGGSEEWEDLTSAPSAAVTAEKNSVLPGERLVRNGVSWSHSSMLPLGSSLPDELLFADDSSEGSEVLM
# Assay: as above
row,Sequence,phosphorylation enrichment
1,RQGQAYRGQRV [TSHR_Y706_A703G],0.454
2,YCRIMYDIFPF [INTS13_Y67],4.92
3,AFSLKYEQQTQ [SYTL4_Y366],0.491
4,AHARMYGVLPW [PLP1_Y207_D203H],0.507
5,FGCGMYSHLQG [LGR4_Y848_D844G_YF],3.76
6,ENELTYYCYKK [CD59_Y86_C89Y],1.36
7,KSPGEYVNIEF [IRS1_Y896],0.546
8,LLAGLYRGQAL [FGFR4_Y390],0.553
9,FGRTFYNQAIM [MCCC2_Y196],0.431
10,RSRSPYSPVFR [CDK13_Y399_L403F],0.655
11,LLSVAYKNVVG [YWHAG_Y49],0.454
12,RHFTGYRIELQ [INSR_Y818],0.546
13,RKNAKYLLKGE [CDH5_Y82],0.718
14,IMITDYLPLFR [INSR_Y87_L89P],0.427
15,TLSGIYQYNIA [FOXL2_Y81_I84N],9.86
16,PTTKTYFPHFD [HBA1_Y43],0.553

# System: c-Abl (mouse)
# Assay: as above
row,Sequence,phosphorylation enrichment
1,RQGQAYRGQRV [TSHR_Y706_A703G],0.458
2,YCRIMYDIFPF [INTS13_Y67],1.7
3,AFSLKYEQQTQ [SYTL4_Y366],0.564
4,AHARMYGVLPW [PLP1_Y207_D203H],0.58
5,FGCGMYSHLQG [LGR4_Y848_D844G_YF],1.04
6,ENELTYYCYKK [CD59_Y86_C89Y],6.18
7,KSPGEYVNIEF [IRS1_Y896],0.706
8,LLAGLYRGQAL [FGFR4_Y390],0.591
9,FGRTFYNQAIM [MCCC2_Y196],0.635
10,RSRSPYSPVFR [CDK13_Y399_L403F],0.58
11,LLSVAYKNVVG [YWHAG_Y49],1.05
12,RHFTGYRIELQ [INSR_Y818],0.805
13,RKNAKYLLKGE [CDH5_Y82],0.901
14,IMITDYLPLFR [INSR_Y87_L89P],0.732
15,TLSGIYQYNIA [FOXL2_Y81_I84N],1.06
16,PTTKTYFPHFD [HBA1_Y43],0.59

# System: c-Src
# Assay: as above
row,Sequence,phosphorylation enrichment
1,RQGQAYRGQRV [TSHR_Y706_A703G],0.453
2,YCRIMYDIFPF [INTS13_Y67],2.98
3,AFSLKYEQQTQ [SYTL4_Y366],0.364
4,AHARMYGVLPW [PLP1_Y207_D203H],2.35
5,FGCGMYSHLQG [LGR4_Y848_D844G_YF],2.53
6,ENELTYYCYKK [CD59_Y86_C89Y],5.18
7,KSPGEYVNIEF [IRS1_Y896],0.47
8,LLAGLYRGQAL [FGFR4_Y390],0.452
9,FGRTFYNQAIM [MCCC2_Y196],0.463
10,RSRSPYSPVFR [CDK13_Y399_L403F],0.576
11,LLSVAYKNVVG [YWHAG_Y49],0.418
12,RHFTGYRIELQ [INSR_Y818],0.525
13,RKNAKYLLKGE [CDH5_Y82],0.687
14,IMITDYLPLFR [INSR_Y87_L89P],0.577
15,TLSGIYQYNIA [FOXL2_Y81_I84N],6.54
16,PTTKTYFPHFD [HBA1_Y43],0.576

# Molecular target: Grb2 SH2 (UniProt P62993)
# Sequence (P62993 whole entry, looked up): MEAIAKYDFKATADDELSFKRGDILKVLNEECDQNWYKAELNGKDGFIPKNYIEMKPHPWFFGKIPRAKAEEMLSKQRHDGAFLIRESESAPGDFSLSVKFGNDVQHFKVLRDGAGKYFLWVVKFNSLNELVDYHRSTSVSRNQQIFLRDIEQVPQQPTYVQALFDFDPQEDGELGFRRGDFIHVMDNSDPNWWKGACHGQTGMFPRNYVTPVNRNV
# Assay: SH2 binding enrichment of the phosphorylated peptide, bacterial display (enrichment ratio); higher = better substrate or ligand; peptides without Tyr show the background
row,Sequence,SH2 binding enrichment
1,RQGQAYRGQRV [TSHR_Y706_A703G],0.552
2,YCRIMYDIFPF [INTS13_Y67],1.01
3,AFSLKYEQQTQ [SYTL4_Y366],1.09
4,AHARMYGVLPW [PLP1_Y207_D203H],1.05
5,FGCGMYSHLQG [LGR4_Y848_D844G_YF],0.875
6,ENELTYYCYKK [CD59_Y86_C89Y],0.793
7,KSPGEYVNIEF [IRS1_Y896],3.04
8,LLAGLYRGQAL [FGFR4_Y390],0.63
9,FGRTFYNQAIM [MCCC2_Y196],0.672
10,RSRSPYSPVFR [CDK13_Y399_L403F],0.706
11,LLSVAYKNVVG [YWHAG_Y49],0.932
12,RHFTGYRIELQ [INSR_Y818],1.77
13,RKNAKYLLKGE [CDH5_Y82],1.19
14,IMITDYLPLFR [INSR_Y87_L89P],1.21
15,TLSGIYQYNIA [FOXL2_Y81_I84N],0.817
16,PTTKTYFPHFD [HBA1_Y43],0.825

# Molecular target: SHP2-C SH2
# Assay: as above
row,Sequence,SH2 binding enrichment
1,RQGQAYRGQRV [TSHR_Y706_A703G],0.334
2,YCRIMYDIFPF [INTS13_Y67],1.12
3,AFSLKYEQQTQ [SYTL4_Y366],0.67
4,AHARMYGVLPW [PLP1_Y207_D203H],1.19
5,FGCGMYSHLQG [LGR4_Y848_D844G_YF],0.731
6,ENELTYYCYKK [CD59_Y86_C89Y],0.65
7,KSPGEYVNIEF [IRS1_Y896],1.26
8,LLAGLYRGQAL [FGFR4_Y390],0.882
9,FGRTFYNQAIM [MCCC2_Y196],0.592
10,RSRSPYSPVFR [CDK13_Y399_L403F],0.405
11,LLSVAYKNVVG [YWHAG_Y49],0.518
12,RHFTGYRIELQ [INSR_Y818],2.13
13,RKNAKYLLKGE [CDH5_Y82],1.06
14,IMITDYLPLFR [INSR_Y87_L89P],0.857
15,TLSGIYQYNIA [FOXL2_Y81_I84N],1.07
16,PTTKTYFPHFD [HBA1_Y43],0.951

# Molecular target: c-Src SH2
# Assay: as above
row,Sequence,SH2 binding enrichment
1,RQGQAYRGQRV [TSHR_Y706_A703G],0.489
2,YCRIMYDIFPF [INTS13_Y67],1.64
3,AFSLKYEQQTQ [SYTL4_Y366],0.587
4,AHARMYGVLPW [PLP1_Y207_D203H],0.49
5,FGCGMYSHLQG [LGR4_Y848_D844G_YF],1.1
6,ENELTYYCYKK [CD59_Y86_C89Y],0.45
7,KSPGEYVNIEF [IRS1_Y896],4.93
8,LLAGLYRGQAL [FGFR4_Y390],0.508
9,FGRTFYNQAIM [MCCC2_Y196],0.625
10,RSRSPYSPVFR [CDK13_Y399_L403F],0.463
11,LLSVAYKNVVG [YWHAG_Y49],0.434
12,RHFTGYRIELQ [INSR_Y818],1.38
13,RKNAKYLLKGE [CDH5_Y82],0.749
14,IMITDYLPLFR [INSR_Y87_L89P],0.659
15,TLSGIYQYNIA [FOXL2_Y81_I84N],1.33
16,PTTKTYFPHFD [HBA1_Y43],0.396
